Assay [1] deals with T1, recombinant human TIGIT extracellular domain (ECD) (human, UniProt Q495A1 22-138).
T1 construct: also called h-TIGIT ECD; recombinant human TIGIT ECD
T1 sequence: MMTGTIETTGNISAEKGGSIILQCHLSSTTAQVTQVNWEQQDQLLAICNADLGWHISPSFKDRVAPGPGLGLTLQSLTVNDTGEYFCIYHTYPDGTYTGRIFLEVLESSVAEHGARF
Briefly: ELISA, VHH supernatant on h-TIGIT ECD coated plates. The protocol:
The VHH antibody genes were amplified by PCR under protocols know in the art, purified by DNA agarose gel, constructed into a phagemid vector pADL-23c (Antibody Design Labs) and transformed to TG1 electrocompetent cells (from Lucigen). Transformed TG1 cells were cultured in Y2T medium. […] Phages in supernatants of culture were harvested by centrifugation, and panning of binders to human-TIGIT (h-TIGIT) or cynomolgus-TIGIT (cyno-TIGIT) antigen was performed using streptavidin-coupled Dynabeads coated with biotinylated h-TIGIT or cyno-TIGIT ECD. After 3 rounds of panning, binders of h-TIGIT or cyno-TIGIT were eluted, which were used to infect SS320 cells. Colonies of SS320 cells were picked and cultured in Y2T medium, and IPTG was added for secretion of VHH antibodies. Supernatants with VHH antibodies were screened by ELISA assays using h-TIGIT ECD coated plates. Positive h-TIGIT binders were picked for sequencing. 29 clones with different sequences were selected. Binding ability of VHH antibodies on cyno-TIGIT was also examined by ELISA. The top 21 binders and their CDRs and VHs are shown in the Sequence Table (SEQ ID NOS: 1-84).

Assay [2] deals with T2, human TIGIT expressed on cells (stably transfected Jurkat cells) (human, UniProt Q495A1 22-244).
T2 construct: Also used here for TIGIT on primary T cells in the MLR; also called h-TIGIT; T cell immunoreceptor with Ig and ITIM domains
T2 sequence: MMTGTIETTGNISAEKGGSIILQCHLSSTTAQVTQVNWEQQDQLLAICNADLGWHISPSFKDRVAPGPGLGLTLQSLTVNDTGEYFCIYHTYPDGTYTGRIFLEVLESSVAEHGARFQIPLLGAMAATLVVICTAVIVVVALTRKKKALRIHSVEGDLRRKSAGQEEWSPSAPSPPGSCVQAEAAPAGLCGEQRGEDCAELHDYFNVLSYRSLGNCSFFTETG
The experiment in a line: whole cell binding to h-TIGIT stable cells, EC50 plotted against the blocking ELISA IC50. (In general: ELISA stands for enzyme-linked immunosorbent assay.)

For assay [3], the target named is T1, recombinant human TIGIT extracellular …. The experiment in a line: PVR blocking ELISA (blocked ligand: PVR), IC50 plotted against the whole cell binding EC50.

B1: 12H7 VHH (VHH)
VHH: QVQLVDSGGGLVQAGGSLRLSCKVSGNFLSVSDMSWYRQAPGMERDVVATVTEHGRTTYTDSVKGRFTISRDNAEHTTYLEMNNLKPEDTAVYFCKASDVFTDAGAHEAVLIRDYWGQGTQVTVSS
notes: VHH in E. coli supernatant
For B1, the binding result in assay [1] is on record as “binds”.

B2: 1A10 VHH (VHH)
VHH: QVQLVESGGGVVQPGRSLRLSCAASGNSFSSYPMGWFRQAPGKERESVAAISSDGRFSYYADSVKGRFTISRDNSKNTLYLQMNSLRAEDTAVYYCACRDSGSGYYSRAQWYDYWGQGTLVTVSS
B2: the binding result in assay [2] and in assay [3] was “binds” in each case.

B3: 2A6 VHH (VHH)
VHH: QVQLVESGGGVVQPGRSLRLSCAASGPSFSLYPMGWFRQAPGKERESVAAISSDRRFTYYADSVKGRFTISRDNSKNTLYLQMNSLRAEDTAVYYCAARDSGSGYYSRAQWYDYWGQGTLVTVSS
Regarding B3, the binding result in assay [2] and in assay [3] was “binds” throughout.

B4: 1D11 VHH (VHH)
VHH: QVQLVESGGGVVQPGRSLRLSCAASGPSFSSSPMGWFRQAPGKERESVAAISSMGRFTYYADSVKGRFTISRDNSKNTLYLQMNSLRAEDTAVYYCAARDSGSGYYSRAQWYDYWGQGTLVTVSS
Consider B4, for which the binding result in assay [2] and in assay [3] was “binds” in each case.

B5: 6D8 VHH (VHH)
VHH: QVQLVESGGGVVQPGRSLRLSCAASGPSFSSKPMGWFRQAPGKERESVAARSSDGRFTYYADSVKGRFTISRDNSKNTLYLQMNSLRAEDTAVYYCAARDSGSGRYSRAQWYDYWGQGTLVTVSS
For the molecule B5, the binding result in assay [2] and in assay [3] was “binds” in each case.

B6: 5E8 VHH (VHH)
VHH: QVQLVESGGGVVQPGRSLRLSCAASGPSFSSYPMGWFRQAPGKERESVAAQSSDGRFTYYADSVKGRFTISRDNSKNTLYLQMNSLRAEDTAVYYCAARDSGSGYYSRAQWYDYWGQGTLVTVSS
For the molecule B6, the binding result in assay [2] and in assay [3] was “binds” throughout.

B7: 2C5 VHH (VHH)
VHH: QVQLVESGGGVVQPGRSLRLSCAASGPSFSTYPMGWFRQAPGKERESVAAISSQGRFTYYADSVKGRFTISRDNSKNTLYLQMNSLRAEDTAVYYCAARDSGSGYYSRAQWYDYWGQGTLVTVSS
Take B7: the binding result in assay [2] and in assay [3] was “binds” each time.

B8: 5B5 VHH (VHH)
VHH: QVQLVESGGGVVQPGRSLRLSCAASGPSFSSYPMGWFRQAPGKERESVAAISSDTRFTYYADSVKGRFTISRDNSKNTLYLQMNSLRAEDTAVYYCAARDSGSGYYSRAQWYDRWGQGTLVTVSS
With B8, the binding result in assay [2] and in assay [3] was “binds” throughout.

B9: 6E9 VHH (VHH)
VHH: QVQLVESGGGVVQPGRSLRLSCAASGPSRSSYPMGWFRQAPGKERESVAAISSDGKFTYYADSVKGRFTISRDNSKNTLYLQMNSLRAEDTAVYYCAARDSGSGYYSRANWYDYWGQGTLVTVSS
With B9, the binding result in assay [2] and in assay [3] was “binds” throughout.

B10: 6D12 VHH (VHH)
VHH: QVQLVESGGGVVQPGRSLRLSCAASGPSFSTYPMGWFRQAPGKERESVAAISSDGVFTYYADSVKGRFTISRDNSKNTLYLQMNSLRAEDTAVYYCAARDSGSGYYSREQWYDYWGQGTLVTVSS
As to B10, the binding result in assay [2] and in assay [3] was “binds” throughout.

B11: 2D5 VHH (VHH)
VHH: QVQLVESGGGVVQPGRSLRLSCAASGPSFSSSPMGWFRQAPGKERESVAAISWDGRFTYYADSVKGRFTISRDNSKNTLYLQMNSLRAEDTAVYYCAARDSGSGYYSRAQWYVYWGQGTLVTVSS
Take B11: the binding result in assay [2] and in assay [3] was “binds” each time.

B12: 5G10 VHH (VHH)
VHH: QVQLVESGGGVVQPGRSLRLSCAASGPRFSSYPMGWFRQAPGKERESVAAISSDGRFTYYADSVKGRFTISRDNSKNTLYLQMNSLRAEDTAVYYCAARDSGSGYYSRAQWYDGWGQGTLVTVSS
For the molecule B12, the binding result in assay [2] and in assay [3] was “binds” throughout.

B13: 1C7 VHH (VHH)
VHH: QVQLVESGGGVVQPGRSLRLSCAASGPSFSSYPMGWFRQAPGKERESVAAISSRGRFTYYADSVKGRFTISRDNSKNTLYLQMNSLRAEDTAVYYCAARGSGSGYYSRAQWYDYWGQGTLVTVSS
Turning to B13, the binding result in assay [2] and in assay [3] was “binds” in each case.

B14: 2A5 VHH (VHH)
VHH: QVQLVESGGGVVQPGRSLRLSCAASGPSFSSYPMGWFRQAPGKERESVAAISSVGRFTYYADSVKGRFTISRDNSKNTLYLQMNSLRAEDTAVYYCAARDSGSGYYSRWQWYDYWGQGTLVTVSS
Take B14: the binding result in assay [2] and in assay [3] was “binds” in each case.

B15: 7B11 VHH (VHH)
VHH: QVQLVESGGGVVQPGRSLRLSCAASGPSFLIYPMGWFRQAPGKERESVAAISSDGRFWYYADSVKGRFTISRDNSKNTLYLQMNSLRAEDTAVYYCAARDSGSGYYSRVQWYDYWGQGTLVTVSS
Turning to B15, the binding result in assay [2] and in assay [3] was “binds” throughout.

B16: 6B11 VHH (VHH)
VHH: QVQLVESGGGVVQPGRSLRLSCAASGPSFPSYPMGWFRQAPGKERESVAAISSRGRFTYYADSVKGRFTISRDNSKNTLYLQMNSLRAEDTAVYYCAARDSGSGYYSRLQWYDYWGQGTLVTVSS
On to B16, for which the binding result in assay [2] and in assay [3] was “binds” throughout.

B17: 4C5 VHH (VHH)
VHH: QVQLVDSGGGLVQAGGSLRLSCAVSGRSVSTYFVGWFRQAPGKEREFVAAIDRGSTVTRYDDSVKGRFTISRDNAKDTVYLQMNSLKPEDTAVYYCAAKAITRNFIATNDYDYWGQGTQVTVSS
notes: VHH in E. coli supernatant
On to B17, for which the binding result in assay [1] is on record as “binds”.

B18: 3H7 VHH (VHH)
VHH: QVKLEESGGGLVQAGGSLRLSCAASGSILSAGVMRWYRQAPGKQRELVASIALDGSTGYYIDSVKGRFTISRDNAKNIVYLDMRSLEPADTAVYLCNANIRTDMRSAPFDHWGHGTQVTVSS
notes: VHH in E. coli supernatant
As to B18, in assay [1], the binding result was “binds”.

B19: 4C6 VHH (VHH)
VHH: QVQLVESGGGLVQAGGSLRLACAASGRTFSSYPMGWFRQGPGKERESVAAISSDGRFTYYAASVKGRFTISKDNAKSAAFLQMNSLKPEDTAVYRCAVDPTGWGTIEADFRSWGQGTQVTVSS
notes: VHH in E. coli supernatant
Regarding B19, the binding result in assay [1] is reported as “binds”.

B20: 4E5 VHH (VHH)
VHH: QVQLVDSGGGVVEVGASLTLSCETSGLTSSDIAVGWFRQGPGKERESVAAISSDGRFTYYAASVKGRFTISKDNAKSAAFLQMNSLKPEDTAVYYCAARDSGSGYYSRAQWYDYWGQGTQVTVSS
notes: VHH in E. coli supernatant
Take B20: the binding result in assay [1] is “binds”.

B21: 4A11 VHH (VHH)
VHH: QVKLEESGGGEAQPGGSLRLSCTASGRPFSNYTMGWFRRAPGKEREFVGLAWPSPSTYVVDSVKGRFTISRDNAKNTIYLQMNSLKPEDTAIYYCAADYKSLTQSWLNAALDYWGQGTQVTVSS
notes: VHH in E. coli supernatant
On to B21, for which the binding result in assay [1] is on record as “binds”.

B22: 4H6 VHH (VHH)
VHH: QVQLVESGGGLATAGASLILSCAASGTIFRLNRMGWFRQAPGKERERVAATIWSGRRTHYADSVKGRFTISTDNAKKTVYLRMSSLKPEDTAVYYCNYRRITPWEASGNYWGQGTQVTVSS
notes: VHH in E. coli supernatant
With B22, the binding result in assay [1] is reported as “binds”.

B23: 4D11 VHH (VHH)
VHH: QVQLQESGGGLVQPGGSLRLSCAASGSISSINAMGWYRLAPGKHREFVADITNSGSTNYAASVKGRFNISRDNAKDTVYLQMNSLKFEDTAVYYCTARRSTWYISSGRGTQVTVSS
notes: VHH in E. coli supernatant
For the molecule B23, the binding result in assay [1] is “binds”.

B24: 4B5 VHH (VHH)
VHH: QVKLEESGGRSVLAGGSLRLRCAGTPRTFSTFHIGWFRQAPGKEREFVAAFNWSGGRTYYADSVKGRFTISRNNGKNMVYLQMTSLTPEDTGLYYCAAARDRGLHDGTTSDSYLEGSHEYEYWGQGTQVTVSS
notes: VHH in E. coli supernatant
Regarding B24, the binding result in assay [1] was “binds”.

Source of the values: patent US20230060388A1 (SHANGHAI HENLIUS BIOTECH, published 2023).
